US20150258192A1, “COMPOSITIONS AND METHODS FOR PREVENTING OR TREATING CHRONIC LUNG ALLOGRAFT DYSFUNCTION (CLAD) AND IDIOPATHIC PULMONARY FIBROSIS (IPF)” (priority 2014, published 2015)
No end group written: not given here.

What was measured:
Experiment in all cases: Kinase Profiling Assay
Type in all cases: biochemical
Conditions in all cases: peptide 100 μM
[1] = biological target: T1, PKCε(h) (Homo sapiens, UniProt Q02156)
T1 sequence (Q02156 1-737): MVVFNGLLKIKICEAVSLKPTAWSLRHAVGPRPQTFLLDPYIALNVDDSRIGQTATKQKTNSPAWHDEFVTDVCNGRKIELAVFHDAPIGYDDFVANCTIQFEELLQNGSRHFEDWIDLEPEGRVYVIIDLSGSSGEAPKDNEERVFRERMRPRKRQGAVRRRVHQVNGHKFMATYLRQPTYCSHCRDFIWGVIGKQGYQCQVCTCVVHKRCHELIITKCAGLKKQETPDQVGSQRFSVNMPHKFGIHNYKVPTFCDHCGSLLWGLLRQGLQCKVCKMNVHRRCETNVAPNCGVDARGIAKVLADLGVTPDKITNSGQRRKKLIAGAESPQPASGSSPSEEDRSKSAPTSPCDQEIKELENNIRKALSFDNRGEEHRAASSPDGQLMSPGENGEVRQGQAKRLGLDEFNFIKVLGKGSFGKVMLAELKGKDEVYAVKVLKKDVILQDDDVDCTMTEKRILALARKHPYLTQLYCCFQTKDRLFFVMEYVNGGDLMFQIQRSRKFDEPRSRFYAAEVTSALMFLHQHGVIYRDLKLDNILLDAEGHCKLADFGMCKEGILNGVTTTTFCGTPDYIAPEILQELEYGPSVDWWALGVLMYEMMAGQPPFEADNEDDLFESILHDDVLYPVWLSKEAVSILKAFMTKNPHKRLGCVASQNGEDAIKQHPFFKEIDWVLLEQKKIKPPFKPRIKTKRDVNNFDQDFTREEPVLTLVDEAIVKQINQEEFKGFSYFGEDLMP
In short: (§1)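 Activity remaining relative to an uninhibited control was determined by scintillation counting of labeled substrate bound to a negatively charged filter. Radiolabeled phosphate came from ATP; the substrate carried positive charge. Duplicate measurements, within a 266-kinase human panel.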

[2] = biological target: Ron(h) (Homo sapiens, UniProt Q04912)
In short: as §1

[3] = biological target: ROCK-I(h) (Homo sapiens, UniProt Q13464)
In short: as §1

[4] = biological target: Tie2(Y897S)(h) (Homo sapiens, UniProt Q02763, Y897S)
In short: as §1

[5] = biological target: T2, DMPK(h) (Homo sapiens, UniProt Q09013)
T2 sequence (Q09013 1-629): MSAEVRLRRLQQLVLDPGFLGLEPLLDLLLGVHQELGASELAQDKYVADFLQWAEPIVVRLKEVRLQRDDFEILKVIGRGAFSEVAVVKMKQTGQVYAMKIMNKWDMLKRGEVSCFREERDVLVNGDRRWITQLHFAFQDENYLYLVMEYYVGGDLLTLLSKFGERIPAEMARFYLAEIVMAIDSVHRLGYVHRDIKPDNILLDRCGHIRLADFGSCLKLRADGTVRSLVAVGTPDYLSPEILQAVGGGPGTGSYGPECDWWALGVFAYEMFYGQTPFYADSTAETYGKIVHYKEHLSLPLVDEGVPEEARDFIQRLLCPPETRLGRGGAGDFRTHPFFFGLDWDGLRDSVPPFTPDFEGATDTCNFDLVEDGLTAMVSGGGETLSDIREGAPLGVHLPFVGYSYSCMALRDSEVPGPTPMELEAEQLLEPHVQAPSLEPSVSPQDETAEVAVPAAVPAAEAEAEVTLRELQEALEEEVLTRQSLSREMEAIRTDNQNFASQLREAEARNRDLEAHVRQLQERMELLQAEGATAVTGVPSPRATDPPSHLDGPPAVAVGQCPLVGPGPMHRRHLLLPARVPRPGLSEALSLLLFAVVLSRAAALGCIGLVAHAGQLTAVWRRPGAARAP
In short: as §1

[6] = biological target: T3, MRCKβ(h) (Homo sapiens, UniProt Q9Y5S2)
T3 construct: purchased Millipore
In short: as §1

[7] = biological target: T4, Met(h) (Homo sapiens, UniProt P08581)
T4 construct: purchased Millipore
In short: as §1

[8] = biological target: T5, EphA1(h) (Homo sapiens, UniProt P21709)
T5 sequence (P21709 26-976): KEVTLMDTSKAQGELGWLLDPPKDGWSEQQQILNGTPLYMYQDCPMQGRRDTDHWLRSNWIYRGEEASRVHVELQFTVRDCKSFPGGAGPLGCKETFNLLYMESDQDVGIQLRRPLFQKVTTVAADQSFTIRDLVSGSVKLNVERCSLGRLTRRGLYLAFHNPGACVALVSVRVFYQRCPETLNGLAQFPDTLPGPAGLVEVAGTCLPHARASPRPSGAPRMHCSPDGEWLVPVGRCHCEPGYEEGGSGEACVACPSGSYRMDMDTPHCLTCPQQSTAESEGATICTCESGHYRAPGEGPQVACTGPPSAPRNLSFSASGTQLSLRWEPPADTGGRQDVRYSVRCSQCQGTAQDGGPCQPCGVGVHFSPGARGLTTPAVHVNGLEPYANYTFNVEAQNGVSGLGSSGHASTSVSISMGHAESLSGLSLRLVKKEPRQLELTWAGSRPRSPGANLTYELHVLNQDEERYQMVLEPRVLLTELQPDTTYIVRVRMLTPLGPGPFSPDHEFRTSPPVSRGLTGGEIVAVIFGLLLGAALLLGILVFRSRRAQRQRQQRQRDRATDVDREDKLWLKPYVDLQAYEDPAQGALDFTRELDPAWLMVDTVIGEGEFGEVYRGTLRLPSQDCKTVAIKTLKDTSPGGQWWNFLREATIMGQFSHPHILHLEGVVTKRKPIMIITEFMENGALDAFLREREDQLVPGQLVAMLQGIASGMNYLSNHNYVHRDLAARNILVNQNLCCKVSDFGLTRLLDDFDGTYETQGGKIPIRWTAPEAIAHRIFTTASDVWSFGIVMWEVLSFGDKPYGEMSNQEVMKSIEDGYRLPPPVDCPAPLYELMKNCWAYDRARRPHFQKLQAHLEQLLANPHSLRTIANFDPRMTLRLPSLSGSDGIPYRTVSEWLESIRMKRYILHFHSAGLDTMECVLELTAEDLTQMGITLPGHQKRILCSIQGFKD
In short: as §1

ROCK-I(h), sequence (Q13464 whole entry): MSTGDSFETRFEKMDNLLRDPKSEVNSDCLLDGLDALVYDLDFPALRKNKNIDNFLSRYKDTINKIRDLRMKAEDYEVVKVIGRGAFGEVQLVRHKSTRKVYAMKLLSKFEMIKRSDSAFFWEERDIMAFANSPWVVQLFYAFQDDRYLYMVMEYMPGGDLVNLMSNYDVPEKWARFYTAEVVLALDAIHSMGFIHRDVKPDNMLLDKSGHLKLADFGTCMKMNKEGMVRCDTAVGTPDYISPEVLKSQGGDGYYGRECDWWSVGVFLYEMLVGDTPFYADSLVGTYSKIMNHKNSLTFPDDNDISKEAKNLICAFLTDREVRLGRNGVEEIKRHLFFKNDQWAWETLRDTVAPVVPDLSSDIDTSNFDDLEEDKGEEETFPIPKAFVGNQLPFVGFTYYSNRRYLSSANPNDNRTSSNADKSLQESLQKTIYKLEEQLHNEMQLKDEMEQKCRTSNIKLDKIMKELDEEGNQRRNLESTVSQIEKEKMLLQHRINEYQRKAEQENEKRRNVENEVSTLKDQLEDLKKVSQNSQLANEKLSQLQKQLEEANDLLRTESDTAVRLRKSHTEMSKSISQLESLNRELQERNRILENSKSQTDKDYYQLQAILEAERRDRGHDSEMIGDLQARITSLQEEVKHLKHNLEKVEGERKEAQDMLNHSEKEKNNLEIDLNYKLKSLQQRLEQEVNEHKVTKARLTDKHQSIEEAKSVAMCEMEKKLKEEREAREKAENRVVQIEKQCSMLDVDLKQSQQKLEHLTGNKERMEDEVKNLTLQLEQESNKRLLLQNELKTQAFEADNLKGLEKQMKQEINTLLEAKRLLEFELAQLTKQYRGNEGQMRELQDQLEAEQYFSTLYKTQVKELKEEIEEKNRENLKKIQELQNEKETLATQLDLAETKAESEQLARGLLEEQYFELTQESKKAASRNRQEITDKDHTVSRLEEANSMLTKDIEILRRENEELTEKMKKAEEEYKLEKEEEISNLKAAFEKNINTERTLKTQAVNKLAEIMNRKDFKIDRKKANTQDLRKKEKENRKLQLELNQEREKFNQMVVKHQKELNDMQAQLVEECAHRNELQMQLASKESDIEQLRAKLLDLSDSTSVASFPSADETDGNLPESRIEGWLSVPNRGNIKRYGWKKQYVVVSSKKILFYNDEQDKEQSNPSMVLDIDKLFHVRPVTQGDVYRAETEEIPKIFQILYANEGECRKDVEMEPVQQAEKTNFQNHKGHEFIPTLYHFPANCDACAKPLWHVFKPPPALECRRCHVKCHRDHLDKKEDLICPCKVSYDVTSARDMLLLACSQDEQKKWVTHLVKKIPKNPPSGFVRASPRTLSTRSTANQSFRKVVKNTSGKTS
T3 sequence (Q9Y5S2 whole entry): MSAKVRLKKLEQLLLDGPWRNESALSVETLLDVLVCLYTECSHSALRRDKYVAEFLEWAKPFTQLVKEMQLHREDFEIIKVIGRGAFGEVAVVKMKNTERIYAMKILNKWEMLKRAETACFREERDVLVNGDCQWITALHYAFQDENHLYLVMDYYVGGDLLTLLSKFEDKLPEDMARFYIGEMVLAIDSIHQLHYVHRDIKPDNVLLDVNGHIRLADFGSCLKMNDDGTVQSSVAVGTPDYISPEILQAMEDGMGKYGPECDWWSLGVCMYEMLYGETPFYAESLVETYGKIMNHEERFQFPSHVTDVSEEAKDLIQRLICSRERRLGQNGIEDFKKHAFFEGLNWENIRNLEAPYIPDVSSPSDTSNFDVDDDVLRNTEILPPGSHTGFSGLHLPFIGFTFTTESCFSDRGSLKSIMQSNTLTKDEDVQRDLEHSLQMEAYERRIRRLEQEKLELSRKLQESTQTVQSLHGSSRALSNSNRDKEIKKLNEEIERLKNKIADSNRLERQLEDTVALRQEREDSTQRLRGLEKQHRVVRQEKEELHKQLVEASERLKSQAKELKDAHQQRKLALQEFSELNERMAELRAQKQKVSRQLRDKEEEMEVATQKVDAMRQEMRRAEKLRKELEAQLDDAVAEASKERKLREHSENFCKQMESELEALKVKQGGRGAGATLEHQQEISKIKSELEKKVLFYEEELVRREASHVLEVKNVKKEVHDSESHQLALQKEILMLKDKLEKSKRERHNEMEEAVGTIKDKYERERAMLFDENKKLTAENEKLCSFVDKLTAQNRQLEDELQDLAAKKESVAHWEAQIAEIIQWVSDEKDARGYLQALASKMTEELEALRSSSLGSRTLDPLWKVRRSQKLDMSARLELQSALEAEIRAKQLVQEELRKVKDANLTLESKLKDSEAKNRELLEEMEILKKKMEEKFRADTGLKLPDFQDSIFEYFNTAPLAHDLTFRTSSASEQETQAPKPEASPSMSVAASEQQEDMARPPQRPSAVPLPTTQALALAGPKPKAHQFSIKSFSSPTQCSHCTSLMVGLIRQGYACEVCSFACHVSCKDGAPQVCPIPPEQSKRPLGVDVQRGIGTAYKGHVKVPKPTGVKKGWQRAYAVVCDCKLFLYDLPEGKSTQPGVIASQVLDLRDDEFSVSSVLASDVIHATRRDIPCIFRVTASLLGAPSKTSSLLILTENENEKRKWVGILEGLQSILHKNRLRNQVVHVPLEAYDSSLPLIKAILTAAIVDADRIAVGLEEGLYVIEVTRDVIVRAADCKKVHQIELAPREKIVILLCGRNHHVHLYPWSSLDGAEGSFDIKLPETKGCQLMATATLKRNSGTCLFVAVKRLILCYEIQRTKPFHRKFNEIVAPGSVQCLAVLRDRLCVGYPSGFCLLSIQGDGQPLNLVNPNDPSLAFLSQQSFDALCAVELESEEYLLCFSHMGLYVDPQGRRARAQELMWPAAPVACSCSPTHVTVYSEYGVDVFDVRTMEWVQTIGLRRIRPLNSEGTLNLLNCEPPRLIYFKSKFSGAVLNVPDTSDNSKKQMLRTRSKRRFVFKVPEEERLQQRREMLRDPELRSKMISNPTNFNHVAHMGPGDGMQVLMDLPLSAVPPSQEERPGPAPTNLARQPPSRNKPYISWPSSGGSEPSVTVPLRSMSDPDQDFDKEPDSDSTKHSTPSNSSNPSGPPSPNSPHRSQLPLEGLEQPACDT
Tie2(Y897S)(h), sequence (Q02763 23-1124 Y897S): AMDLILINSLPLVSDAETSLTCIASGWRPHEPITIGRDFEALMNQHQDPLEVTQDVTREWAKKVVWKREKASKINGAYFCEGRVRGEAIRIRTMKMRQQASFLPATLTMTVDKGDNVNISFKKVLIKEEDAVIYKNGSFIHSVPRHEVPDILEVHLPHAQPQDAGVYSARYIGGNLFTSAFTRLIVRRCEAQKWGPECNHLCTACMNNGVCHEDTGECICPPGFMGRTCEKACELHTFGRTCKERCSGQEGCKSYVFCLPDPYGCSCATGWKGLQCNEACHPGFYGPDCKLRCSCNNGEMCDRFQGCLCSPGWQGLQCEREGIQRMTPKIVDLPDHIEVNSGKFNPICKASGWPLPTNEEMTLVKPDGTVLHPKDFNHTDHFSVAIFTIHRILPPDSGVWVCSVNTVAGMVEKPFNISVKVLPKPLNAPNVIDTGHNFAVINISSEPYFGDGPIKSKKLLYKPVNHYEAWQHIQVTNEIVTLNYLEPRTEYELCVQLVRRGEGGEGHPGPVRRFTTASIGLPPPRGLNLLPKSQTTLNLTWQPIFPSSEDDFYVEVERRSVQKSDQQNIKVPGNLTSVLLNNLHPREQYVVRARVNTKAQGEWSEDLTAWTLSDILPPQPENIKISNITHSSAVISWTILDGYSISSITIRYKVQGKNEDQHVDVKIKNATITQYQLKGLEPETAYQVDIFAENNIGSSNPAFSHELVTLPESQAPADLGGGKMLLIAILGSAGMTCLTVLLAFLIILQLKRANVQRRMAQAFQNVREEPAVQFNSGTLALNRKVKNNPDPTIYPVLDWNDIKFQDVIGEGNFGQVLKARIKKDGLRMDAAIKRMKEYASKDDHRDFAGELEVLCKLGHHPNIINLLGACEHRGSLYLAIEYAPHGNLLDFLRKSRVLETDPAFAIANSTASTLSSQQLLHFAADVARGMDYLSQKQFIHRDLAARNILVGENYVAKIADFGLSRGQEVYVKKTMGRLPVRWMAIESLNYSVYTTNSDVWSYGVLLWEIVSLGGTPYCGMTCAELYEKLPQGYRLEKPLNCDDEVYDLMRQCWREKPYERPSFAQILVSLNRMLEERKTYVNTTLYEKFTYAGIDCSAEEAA

FAKLAARLYRKALARQLGVAA [MMI-0300]
% activity [1]: 79% | % activity [2]: 93% | % activity [3]: 79% | % activity [4]: 83% | % activity [5]: 59% | % activity [6]: 83% | % activity [7]: 65% | % activity [8]: 73%

HRRIKAWLKKIKALARQLGVAA (Mammal) [MMI-0500]
% activity [1]: 23% | % activity [2]: 46% | % activity [3]: 17% | % activity [4]: 80% | % activity [5]: 12% | % activity [6]: -10% | % activity [7]: 27% | % activity [8]: 40%

KAFAKLAARLYRKALARQLGVAA [MMI-0400]
% activity [1]: 59% | % activity [2]: 79% | % activity [3]: 73% | % activity [4]: 87% | % activity [5]: 54% | % activity [6]: 71% | % activity [7]: 62% | % activity [8]: 61%

YARAAARQARAKALARQLGVAA [MMI-0100]
% activity [4]: 99%

YARAAARQARAKALNRQLGVA (Mammal) [MMI-0200]
% activity [1]: 98% | % activity [2]: 120% | % activity [4]: 85% | % activity [5]: 66% | % activity [7]: 71%
